According to patent publication US20250171520A1 (Regeneron, published 2025):

T1: human CD63 (human, UniProt P08962 2-238)
T1 sequence: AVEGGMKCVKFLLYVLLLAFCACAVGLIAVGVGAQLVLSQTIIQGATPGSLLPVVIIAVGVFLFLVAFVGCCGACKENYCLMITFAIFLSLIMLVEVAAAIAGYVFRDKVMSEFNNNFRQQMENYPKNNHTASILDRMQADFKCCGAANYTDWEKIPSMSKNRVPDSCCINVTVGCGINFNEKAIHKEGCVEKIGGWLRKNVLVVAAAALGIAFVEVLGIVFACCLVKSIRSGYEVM

B1: H2M12450N (antibody, V domains shown)
VH: QVQLQESGPKVVKPSETLSLTCTVSGGSISSYYWNWIRQSPGKGLEWIGYTKRGYTDYNPSLRSRVTISEDTSKNQFSLRISSVTAADTAVYYCAQMGWGSHAFDMWGQGTMVAVSS
VL: EIVLTQSPGTLSLSPGERATLSCRASQSVNSRYLAWYQQKPGQAPRLLIYGASSRATGIPDRCSGSGSGTDFTLTISRLEPEDFAVYYCQQYGSSPWTFGQGTKVEIK
notes: also called anti-CD63 antibody
B2: H1M12451N (antibody, V domains shown)
VH: QVQLQESGPGLMKPSETLSLTCTVSGGSFSSYYWNWIRQSPGKGLEWIGYIRYSGDTNYKPSLKSRFTISIDTSKNLFSLRLKSVTAADTAVYYCARMGLGSDAFDIWGQGTMVTVSS
VL: EIVLTQSPGTLSLSPGERATLSCRASQSVNNNYLAWYQQKPGQAPRLLIYGVFNRATNIPDRFSGSGSGTDFTLTISRLEPEDFAVYYCQQYGSSPWTFGQGTKVEIK
notes: This one was detected or captured with anti-mouse Fc reagents; also called HIM12451; anti-CD63 antibody
B3: H2M12395N (antibody, V domains shown)
VH: QVQLQESGPRLVKPSETLSLTCIVSGGSISNFYWNWIRQSPGKGLEWIGYFFYTGTIDYNPSLKSRVTISLDTSKNQFSLNLRLLTAADAAVYYCARMGLGANAFDIWGHGTMVTVSS
VL: EIVLTQSPGTLSLSPGERATLSCRASQHVSSNYLAWYQQKPGQAPRLLIYGGSSRATGIPDRFSGSGSGTDFTLTISRLEPADFAVFYCQQYGNSPWTFGQGTKVEMK
notes: as for B1
B4: H4H12450N (antibody, V domains shown)
VH: QVQLQESGPKVVKPSETLSLTCTVSGGSISSYYWNWIRQSPGKGLEWIGYTKRGYTDYNPSLRSRVTISEDTSKNQFSLRISSVTAADTAVYYCAQMGWGSHAFDMWGQGTMVAVSS
VL: not shown
notes: as for B1

Key:
human CD63 [1] = target: T1, human CD63; assay: cell-based or functional assay
human CD63 [2] = target: T1, human CD63; assay: ECL cell binding, LNCAP cells
Method: (§1) LNCAP cells were determined to have a lower human CD63 copy number than U87MG cells. Non-transfected NIH3T3 cells, which have no detectable expression of human CD63 by fluorescence activated cell sorting (FACS), were included as a negative control.
(§2) Briefly, cell lines were rinsed once in PBS buffer without Ca²⁺/Mg²⁺ and incubated for 10 minutes at 37° C. with Enzyme Free Cell Dissociation Solution (Millipore, Cat #S-004-C) to detach the cells. Cells were then washed once with PBS with Ca²⁺/Mg²⁺ and counted with a Cellometer™ Auto T4 cell counter (Nexcelom Bioscience, LLC). Approximately 2.0×10⁴ NIH3T3/hCD63, LNCAP, U87MG or NIH3T3 cells were seeded separately onto 96-well carbon electrode plates (Meso Scale Discovery, Cat #L15XB-6) and were then incubated for one hour at 37° C. Nonspecific binding sites were blocked with 2% BSA (w/v) in PBS with Ca²⁺/Mg²⁺ for one hour at room temperature (RT). Solutions containing anti-CD63 antibodies or isotype control antibodies at a range of concentrations (1.7 pM to 100nM) in 0.5% BSA (w/v) in PBS with Ca²⁺/Mg²⁺, as well as control buffer alone, were then added in duplicate to the plate-bound NIH3T3/hCD63, LNCAP, U87MG or NIH3T3 cells and incubated for one hour at RT. Plates were subsequently washed to remove unbound antibodies using an AquaMax2000 plate washer with a cell washing head (MDS Analytical Technologies). […] Plates were washed and then incubated with Read Buffer (MSD, Cat #R92TD-2) according to the manufacturer's instructions. Luminescent signals were measured using a SECTOR Imager (MSD). Luminescence intensity, measured in relative light units (RLU), was recorded to indicate the binding intensity of each antibody at the range of concentrations tested. The ratio of signal detected with 3.7 nM antibody binding to human CD63 expressing cells compared to the same concentration of antibody binding to negative cells was reported as an indication of specificity of CD63 binding.

human CD63 [3] = target: T1, human CD63; assay: ECL cell binding, U87MG cells
Method: as §1, §2

[4] = target: T2, recombinant human CD63 extracellular loop 2 expressed with a C-terminal Myc-Myc-hexahistidine (human); assay: SPR (Biacore), captured mAb, 25°C
T2 construct: also called hCD63 EC loop 2-MMH; human CD63 EC loop2-MMH
Method: (§3) Equilibrium dissociation constants (KD) for different CD63loop reagents binding to purified anti-CD63 monoclonal antibodies were determined using a real-time surface plasmon resonance based Biacore T200 biosensor or Biacore 2000 biosensor. All binding studies were performed in 10 mM HEPES, 150 mM NaCl, 3 mM EDTA, and 0.05% v/v Surfactant Tween-20, pH 7.4 (HBS-ET) running buffer at 25° C. and 37° C. The Biacore CM5 sensor chip surface was first derivatized by amine coupling with either a rabbit anti-mouse Fc specific polyclonal antibody (GE Healthcare, Cat #BR100838) or an anti-human Fab kit (GE Healthcare, Cat #28958325) to capture anti-CD63 monoclonal antibodies. Binding studies were performed on either recombinant human CD63 extracellular loop 2 expressed with a C-terminal Myc-Myc-hexahistidine (hCD63 EC loop 2-MMH; SEQ ID NO:80) or recombinant human CD63 extracellular loop 2 expressed with a C-terminal human Fc tag (hCD63 EC loop 2-hFc; SEQ ID NO:81). Different concentrations of hCD63 EC loop 2-MMH or hCD63 EC loop 2-hFc (either tested at 50 nM-12.5 nM in a 4-fold dilution or at 90 nM-0.37 nM in 3-fold serial dilutions) were first prepared in HBS-ET running buffer and were injected over the anti-mouse Fc captured anti-CD63 monoclonal antibody surface for 4 minutes at a flow rate of […] or 50 μL/minute, while the dissociation of monoclonal antibody bound CD63 reagent was monitored for 8 or 10 minutes in HBS-ET running buffer. The association rate (kₐ) and dissociation rate (kd) were determined by fitting the real-time binding sensorgrams to a 1:1 binding model with mass transport limitation using Scrubber 2.0c curve-fitting software. Binding dissociation equilibrium constant (KD) and dissociative half-life (t½) were calculated from the kinetic rates as: […]
(§4) Binding kinetics parameters for human CD63 EC loop 2 protein binding to different anti-CD63 monoclonal antibodies of the invention at 25° C. and 37° C. are shown in Tables 15 through 18.

[5] = target: T3, recombinant human CD63 extracellular loop 2 expressed with a C-terminal human Fc tag (human); assay: SPR (Biacore), captured mAb, 25°C
T3 construct: also called hCD63 EC loop 2-hFc; human CD63 EC loop2-hFC
Method: as §3, §4

[6] = target: T2, recombinant human CD63 extracellular …; assay: SPR (Biacore), captured mAb, 37°C
Method: as §3, §4

[7] = target: T3, recombinant human CD63 extracellular …; assay: SPR (Biacore), captured mAb, 37°C
Method: as §3, §4

human CD63 [8] = target: T1, human CD63; assay: ECL cell binding, NIH3T3/hCD63 cells
Method: as §1, §2

human CD63 [9] = target: T1, human CD63; assay: flow cytometry, HEK293 cells endogenously expressing human CD63
Method: Relative cell surface binding of the anti-CD63 antibodies to human CD63 expressing cells was accessed via flow cytometry using CD63 positive HEK293 cells (ATCC, Cat #CRL-1573), which endogenously express human CD63, and CD63 negative HEK293/CD63 knock out cells. For the assay, cells were plated in PBS without calcium and magnesium (VWR, Cat #45000-446), containing 2% FBS (Saradigm Cat #1500-500) (Staining Buffer) in 96 well V-bottom plates (Axygen Scientific, Cat #P-96-450-V-C-S). Cells were then incubated with anti-CD63 antibodies or isotype control antibodies at concentrations ranging from 100 nM to 1.7 pM for 30 minutes on ice. Wells containing no antibody were used as controls. HEK293/CD63KO cells were stained with only the highest concentration (100 nM) of the antibodies. […] Cells were then washed and fixed using a 50% solution of Cytofix (BD Biosciences, Cat #554655) diluted in PBS. Samples were run on the Intellicyte Hypercyt flow cytometer and results were analyzed in ForeCyt software (Intellicyte) to calculate the mean fluorescent intensity (MFI). Measured values were analyzed using a four parameter logistic equation over a 12-point response curve using GraphPad Prism and the resulting EC₅₀ values are reported (Table 12). The signal to noise ratio (S/N) was determined by calculating the ratio of the anti-CD63 antibodies or the control antibodies MFI to the wells containing no antibodies (Table 12).

T3 sequence (chain, as listed by the source limits assumed): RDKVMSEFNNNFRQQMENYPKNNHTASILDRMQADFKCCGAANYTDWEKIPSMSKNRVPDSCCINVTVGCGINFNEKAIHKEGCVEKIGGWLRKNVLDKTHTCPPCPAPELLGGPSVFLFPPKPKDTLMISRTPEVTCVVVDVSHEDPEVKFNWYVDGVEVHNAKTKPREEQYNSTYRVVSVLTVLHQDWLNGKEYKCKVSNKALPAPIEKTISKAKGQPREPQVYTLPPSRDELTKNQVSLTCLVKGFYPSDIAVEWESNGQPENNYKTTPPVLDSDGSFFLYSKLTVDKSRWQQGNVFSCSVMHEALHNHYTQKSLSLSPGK
T2 sequence (chain, as listed by the source limits assumed): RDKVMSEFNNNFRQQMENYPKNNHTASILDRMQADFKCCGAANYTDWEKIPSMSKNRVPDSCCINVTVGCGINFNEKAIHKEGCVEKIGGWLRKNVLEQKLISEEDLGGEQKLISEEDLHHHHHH

Row | Binder | T47D (nM) IC50, indirect cytotoxicity with anti-mFc Fab-MMAF (human CD63 [1]) [nM] | EC50 (human CD63 [2]) [nM] | ratio at 3.7 nM Ab of cell binding signal (RLU) to human CD63 cells relative to negative NIH3T3 (human CD63 [2]) [fold] | ratio at 3.7 nM Ab of cell binding signal (RLU) to human CD63 cells relative to negative NIH3T3 (human CD63 [3]) [fold] | 50 nM or 90 nM Ag Bound (RU) [4] [RU] | t½ [4] [min] | 50 nM Ag Bound (RU) [5] [RU] | t½ [5] [min] | 50 nM Ag Bound (RU) [6] [RU] | t½ [6] [min] | 50 nM Ag Bound (RU) [7] [RU] | t½ [7] [min] | EC50 (human CD63 [8]) [nM] | ratio at 3.7 nM Ab of cell binding signal (RLU) to human CD63 cells relative to negative NIH3T3 (human CD63 [8]) [fold] | HEK293 (S/N), MFI of antibody over wells with no antibody (human CD63 [9]) | EC50 (human CD63 [3]) [nM] | Kd [4] [nM] | koff [4] [s⁻¹] | kon [4] [M⁻¹ s⁻¹]
1 | B1 | 0.24 | 0.21 | 20 | 175 | 65 | 41 | 134 | 248 | 58 | 57 | 138 | 236 | 0.28 | 230 | 26.7 | – | – | – | –
2 | B2 | – | 1.7 | 7 | 52 | 52 | 27 | 107 | 138 | 44 | 6 | 118 | 35 | 0.57 | 91 | 31.6 | 0.95 | – | – | –
3 | B3 | – | 0.35 | 18 | 171 | 42 | 6 | 117 | 23 | 31 | 1 | 123 | 6 | 0.29 | 256 | 21 | 0.79 | – | – | –
4 | B4 | – | – | – | – | 24 | 157 | – | – | – | – | – | – | – | – | – | – | 0.53 | 7.37e-05 | 139000
